Data on six molecules can be found in PMC11009412, “Pathogenic mutations of human phosphorylation sites affect protein–protein interactions” (Nature Communications, 2024).

This assay concerns BirA*-FLAG-GATAD1 variants in Flp-In-293 cells. As to the kind of experiment: BioID proximity labelling of full-length GATAD1 variants (SILAC). Type of assay: cell-based, human. Particulars: GATAD1 WT vs S102P, significant proteins only; for Log2_Ratio.H.L.normalized.WT_S102P_forward: forward experiment (label swap performed, sign inverted against the H/L ratio); for Log2_Ratio.H.L.normalized.WT_S102P_forward / Log2_Ratio.H.L.normalized.WT_S102P_reverse: log2 of normalized H/L ratio; for Ratio.H.L.normalized.WT_S102P_forward: forward experiment; for Log2_Ratio.H.L.normalized.WT_S102P_reverse / Ratio.H.L.normalized.WT_S102P_reverse: reverse experiment. From the text:
The GATAD1 gene variants were ordered in a pTwist ENTR Kozak vector from Twist Bioscience. The genes were then transferred to a pDEST_pcDNA5_BirA_FLAG_Nterm vector[97] using the Gateway Clonase II system (Thermo Fisher Scientific). The resulting vectors, pEXPR_GATAD1-WT_N-term_BirA_FLAG, pEXPR_GATAD1-S102P_N-term_BirA_FLAG, pEXPR_GATAD1-S102D_N-term_BirA_FLAG, and pEXPR_GATAD1-S102A_N-term_BirA_FLAG, were used to generate tetracycline-inducible stable Flp-In^TM-293 T-REx cells. A 6-well plate was co-transfected with 0.5 µg of the pEXPR plasmid and 1 µg of the pOG44 Flp-recombinase expression vector (Thermo Fisher Scientific) using 4.5 µg of PEI (Polysciences) as a transfection reagent. The following day, the cells were trypsinized and transferred to a 10 cm dish containing DMEM supplemented with 10% FCS and 200 µg/ml hygromycin B (Invivogen) for selection. The cells were cultured for approximately 18 days with media exchange every 3 days until visible colonies were observed. After around 18 days, the colonies were trypsinized and transferred to another 10 cm dish for further characterization and experiments.
Stable Flp-In^TM-293 cell lines expressing GATAD1 variants were cultured using SILAC light (Lys0, Arg0) and SILAC heavy (Lys8, Arg10) media, as explained in the cell culture section. After full labeling, cells were split into 15 cm dishes and were treated with 1 μg/mL tetracycline for 24 h to induce the expression of GATAD1. After the induction period, cells were incubated with 50 μM biotin overnight for proximity biotinylation. As a control, wild-type GATAD1 cells, without biotin or tetracycline addition, were used. Samples were multiplexed, as shown in Supplementary Fig. 41A with both forward and reverse label swap (n = 2). Cells were then lysed in lysis buffer (50 mM Tris-HCl pH 7.5, 150 mM NaCl, 1% Triton X-100, 1 mM EDTA, 1 mM EGTA, 0.1% SDS) with freshly added protease inhibitors and 1% sodium deoxycholate. To digest the excess DNA, 1 μl of Benzonase was added, and the samples were incubated for 20 min at 37 °C. Biotinylated proteins were enriched for 3 h at 4 °C using streptavidin-sepharose beads (GE Cat# 17-5113-01). Beads were pre-washed twice with 0.01% BSA and twice with lysis buffer. After enrichment, the beads were washed one time with lysis buffer, two times with washing buffer (50 mM HEPES-KOH pH 8.0, 100 mM KCl, 10% glycerol, 2 mM EDTA, 0.1% NP-40), and six times with 50 mM ammonium bicarbonate. Beads were resuspended in ammonium bicarbonate, and an on-bead protein digest with 1 μg of trypsin followed overnight. The next day, the digested proteins were transferred to a fresh tube and were incubated with 10 mM DTT for 30 min at 37 °C and with 55 mM iodoacetamide for 20 min at 37 °C in the dark. Samples were desalted with StageTips.
Peptides were separated using reversed-phase liquid chromatography (EASY nLC II 1200, Thermo Fisher Scientific) with self-made C18 microcolumns (20 cm long) packed with ReproSil-Pur C18-AQ 1.9 μm resin (Dr. Maisch, cat# r119.aq.0001). The chromatography system was coupled online to the electrospray ion source (Proxeon) of an Orbitrap Exploris 480 mass spectrometer (Thermo Fisher Scientific). The mobile phase consisted of buffer A (0.1% formic acid and 5% acetonitrile) and buffer B (0.1% formic acid and 80% acetonitrile). Peptides were eluted using a gradient with increasing concentrations of buffer B over 110 minutes, at a flow rate of 250 nl/min. Mass spectrometry data was acquired in data-dependent mode with settings for one full scan (resolution: 60,000; m/z range: 350–1600; normalized AGC target: 300%; maximum injection time: 10 ms), followed by top 20 MS/MS scans using higher-energy collisional dissociation (resolution: 15,000; m/z range: 200–2000; normalized AGC target: 100%; maximum injection time: 120 ms; isolation width: 1.3 m/z; normalized collision energy: 28%).
Raw files were analyzed with MaxQuant, version 2.0.3.0. […]

B1: GTF2A1 (protein, UniProt P52655 2-376, looked up)
Transcription initiation …: ANSANTNTVPKLYRSVIEDVINDVRDIFLDDGVDEQVLMELKTLWENKLMQSRAVDGFHSEEQQLLLQVQQQHQPQQQQHHHHHHHQQAQPQQTVPQQAQTQQVLIPASQQATAPQVIVPDSKLIQHMNASNMSAAATAATLALPAGVTPVQQILTNSGQLLQVVRAANGAQYIFQPQQSVVLQQQVIPQMQPGGVQAPVIQQVLAPLPGGISPQTGVIIQPQQILFTGNKTQVIPTTVAAPTPAQAQITATGQQQPQAQPAQTQAPLVLQVDGTGDTSSEEDEDEEEDYDDDEEEDKEKDGAEDGQVEEEPLNSEDDVSDEEGQELFDTENVVVCQYDKIHRSKNKWKFHLKDGIMNLNGRDYIFSKAIGDAEW
Turning to B1, the Log2_Ratio.H.L.normalized.WT_S102P_forward came out at 1.42, the Ratio.H.L.normalized.WT_S102P_forward came to 0.3738, the Log2_Ratio.H.L.normalized.WT_S102P_reverse was determined as 1.224 and the Ratio.H.L.normalized.WT_S102P_reverse worked out at 2.3357.

B2: GTF2E2 (protein, UniProt P29084 1-291, looked up)
Transcription initiation …: MDPSLLRERELFKKRALSTPVVEKRSASSESSSSSSKKKKTKVEHGGSSGSKQNSDHSNGSFNLKALSGSSGYKFGVLAKIVNYMKTRHQRGDTHPLTLDEILDETQHLDIGLKQKQWLMTEALVNNPKIEVIDGKYAFKPKYNVRDKKALLRLLDQHDQRGLGGILLEDIEEALPNSQKAVKALGDQILFVNRPDKKKILFFNDKSCQFSVDEEFQKLWRSVTVDSMDEEKIEEYLKRQGISSMQESGPKKVAPIQRRKKPASQKKRRFKTHNEHLAGVLKDYSDITSSK
As for B2, the Log2_Ratio.H.L.normalized.WT_S102P_forward is listed as 1.243, the Ratio.H.L.normalized.WT_S102P_forward turned out to be 0.4226, the Log2_Ratio.H.L.normalized.WT_S102P_reverse came to 1.178 and the Ratio.H.L.normalized.WT_S102P_reverse was 2.2619.

B3: NPAT (protein, UniProt Q14207 1-1427, looked up)
Protein NPAT: MLLPSDVARLVLGYLQQENLISTCQTFILESSDLKEYAEHCTDEGFIPACLLSLFGKNLTTILNEYVAMKTKETSNNVPAIMSSLWKKLDHTLSQIRSMQSSPRFAGSQRARTRTGIAEIKRQRKLASQTAPASAELLTLPYLSGQFTTPPSTGTQVTRPSGQISDPSRSYFVVVNHSQSQDTVTTGEALNVIPGAQEKKAHASLMSPGRRKSESQRKSTTLSGPHSTIRNFQDPNAFAVEKQMVIENAREKILSNKSLQEKLAENINKFLTSDNNIAQVPKQTDNNPTEPETSIDEFLGLPSEIHMSEEAIQDILEQTESDPAFQALFDLFDYGKTKNNKNISQSISSQPMESNPSIVLADETNLAVKGSFETEESDGQSGQPAFCTSYQNDDPLNALKNSNNHDVLRQEDQENFSQISTSIQKKAFKTAVPTEQKCDIDITFESVPNLNDFNQRGNSNAECNPHCAELYTNQMSTETEMAIGIEKNSLSSNVPSESQLQPDQPDIPITSFVSLGCEANNENLILSGKSSQLLSQDTSLTGKPSKKSQFCENSNDTVKLKINFHGSKSSDSSEVHKSKIEINVLEPVMSQLSNCQDNSCLQSEILPVSVESSHLNVSGQVEIHLGDSLSSTKQPSNDSASVELNHTENEAQASKSENSQEPSSSVKEENTIFLSLGGNANCEKVALTPPEGTPVENSHSLPPESVCSSVGDSHPESQNTDDKPSSNNSAEIDASNIVSLKVIISDDPFVSSDTELTSAVSSINGENLPTIILSSPTKSPTKNAELVKCLSSEETVGAVVYAEVGDSASMEQSLLTFKSEDSAVNNTQNEDGIAFSANVTPCVSKDGGYIQLMPATSTAFGNSNNILIATCVTDPTALGTSVSQSNVVVLPGNSAPMTAQPLPPQLQTPPRSNSVFAVNQAVSPNFSQGSAIIIASPVQPVLQGMVGMIPVSVVGQNGNNFSTPPRQVLHMPLTAPVCNRSIPQFPVPPKSQKAQGLRNKPCIGKQVNNLVDSSGHSVGCHAQKTEVSDKSIATDLGKKSEETTVPFPEESIVPAAKPCHRRVLCFDSTTAPVANTQGPNHKMVSQNKERNAVSFPNLDSPNVSSTLKPPSNNAIKREKEKPPLPKILSKSESAISRHTTIRETQSEKKVSPTEIVLESFHKATANKENELCSDVERQKNPENSKLSIGQQNGGLRSEKSIASLQEMTKKQGTSSNNKNVLSVGTAVKDLKQEQTKSASSLITTEMLQDIQRHSSVSRLADSSDLPVPRTPGSGAGEKHKEEPIDIIKAPSSRRFSEDSSTSKVMVPPVTPDLPACSPASETGSENSVNMAAHTLMILSRAAISRTTSATPLKDNTQQFRASSRSTTKKRKIEELDERERNSRPSSKNLTNSSIPMKKKKIKKKKLPSSFPAGMDVDKFLLSLHYDE
For B3, the Log2_Ratio.H.L.normalized.WT_S102P_forward is 1.209, the Ratio.H.L.normalized.WT_S102P_forward came out at 0.4326, the Log2_Ratio.H.L.normalized.WT_S102P_reverse worked out at 1.214 and the Ratio.H.L.normalized.WT_S102P_reverse was determined as 2.3205.

B4: TMPO (protein, UniProt P42166 2-694, looked up)
Lamina-associated polypeptide …: PEFLEDPSVLTKDKLKSELVANNVTLPAGEQRKDVYVQLYLQHLTARNRPPLPAGTNSKGPPDFSSDEEREPTPVLGSGAAAAGRSRAAVGRKATKKTDKPRQEDKDDLDVTELTNEDLLDQLVKYGVNPGPIVGTTRKLYEKKLLKLREQGTESRSSTPLPTISSSAENTRQNGSNDSDRYSDNEEGKKKEHKKVKSTRDIVPFSELGTTPSGGGFFQGISFPEISTRPPLGSTELQAAKKVHTSKGDLPREPLVATNLPGRGQLQKLASERNLFISCKSSHDRCLEKSSSSSSQPEHSAMLVSTAASPSLIKETTTGYYKDIVENICGREKSGIQPLCPERSHISDQSPLSSKRKALEESESSQLISPPLAQAIRDYVNSLLVQGGVGSLPGTSNSMPPLDVENIQKRIDQSKFQETEFLSPPRKVPRLSEKSVEERDSGSFVAFQNIPGSELMSSFAKTVVSHSLTTLGLEVAKQSQHDKIDASELSFPFHESILKVIEEEWQQVDRQLPSLACKYPVSSREATQILSVPKVDDEILGFISEATPLGGIQAASTESCNQQLDLALCRAYEAAASALQIATHTAFVAKAMQADISQAAQILSSDPSRTHQALGILSKTYDAASYICEAAFDEVKMAAHTMGNATVGRRYLWLKDCKINLASKNKLASTPFKGGTLFGGEVCKVIKKRGNKH
Consider B4, for which the Log2_Ratio.H.L.normalized.WT_S102P_forward is given as 1.365, the Ratio.H.L.normalized.WT_S102P_forward was 0.3882, the Log2_Ratio.H.L.normalized.WT_S102P_reverse is given as 1.174 and the Ratio.H.L.normalized.WT_S102P_reverse amounted to 2.2568.

B5: PDAP1 (protein, UniProt Q13442 1-181, looked up)
28 kDa heat- and acid-stable …: MPKGGRKGGHKGRARQYTSPEEIDAQLQAEKQKAREEEEQKEGGDGAAGDPKKEKKSLDSDESEDEEDDYQQKRKGVEGLIDIENPNRVAQTTKKVTQLDLDGPKELSRREREEIEKQKAKERYMKMHLAGKTEQAKADLARLAIIRKQREEAARKKEEERKAKDDATLSGKRMQSLSLNK
In the case of B5, the Log2_Ratio.H.L.normalized.WT_S102P_forward came to 1.555, the Ratio.H.L.normalized.WT_S102P_forward was 0.3404, the Log2_Ratio.H.L.normalized.WT_S102P_reverse was 1.001 and the Ratio.H.L.normalized.WT_S102P_reverse is listed as 2.0014.

B6: MFAP1 (protein, UniProt P55081 2-439, looked up)
Microfibrillar-associated …: SVPSALMKQPPIQSTAGAVPVRNEKGEISMEKVKVKRYVSGKRPDYAPMESSDEEDEEFQFIKKAKEQEAEPEEQEEDSSSDPRLRRLQNRISEDVEERLARHRKIVEPEVVGESDSEVEGDAWRMEREDSSEEEEEEIDDEEIERRRGMMRQRAQERKNEEMEVMEVEDEGRSGEESESESEYEEYTDSEDEMEPRLKPVFIRKKDRVTVQEREAEALKQKELEQEAKRMAEERRKYTLKIVEEETKKELEENKRSLAALDALNTDDENDEEEYEAWKVRELKRIKRDREDREALEKEKAEIERMRNLTEEERRAELRANGKVITNKAVKGKYKFLQKYYHRGAFFMDEDEEVYKRDFSAPTLEDHFNKTILPKVMQVKNFGRSGRTKYTHLVDQDTTSFDSAWGQESAQNTKFFKQKAAGVRDVFERPSAKKRKTT
B6: the Log2_Ratio.H.L.normalized.WT_S102P_forward was 1.854, the Ratio.H.L.normalized.WT_S102P_forward was 0.2766, the Log2_Ratio.H.L.normalized.WT_S102P_reverse stood at 1.161 and the Ratio.H.L.normalized.WT_S102P_reverse is recorded as 2.2368.
